# Experimental data taken from article PMC11800616 (Mobile DNA, 2025).
# Where two headings read alike, the source gives them in different places.
# Assays:
# [1] = biological target: T1, LINE-1 ORF2p (translation product of L1 ORF2), endogenous (human (endogenous in N2102Ep and …, UniProt O00370 1-1275)); assay: affinity purification with mass spectrometry
# [2] = biological target: T1, LINE-1 ORF2p (translation product of L1 …); assay: affinity purification with mass spectrometry; remark: listed apart in the source
# T1 sequence (O00370 whole entry): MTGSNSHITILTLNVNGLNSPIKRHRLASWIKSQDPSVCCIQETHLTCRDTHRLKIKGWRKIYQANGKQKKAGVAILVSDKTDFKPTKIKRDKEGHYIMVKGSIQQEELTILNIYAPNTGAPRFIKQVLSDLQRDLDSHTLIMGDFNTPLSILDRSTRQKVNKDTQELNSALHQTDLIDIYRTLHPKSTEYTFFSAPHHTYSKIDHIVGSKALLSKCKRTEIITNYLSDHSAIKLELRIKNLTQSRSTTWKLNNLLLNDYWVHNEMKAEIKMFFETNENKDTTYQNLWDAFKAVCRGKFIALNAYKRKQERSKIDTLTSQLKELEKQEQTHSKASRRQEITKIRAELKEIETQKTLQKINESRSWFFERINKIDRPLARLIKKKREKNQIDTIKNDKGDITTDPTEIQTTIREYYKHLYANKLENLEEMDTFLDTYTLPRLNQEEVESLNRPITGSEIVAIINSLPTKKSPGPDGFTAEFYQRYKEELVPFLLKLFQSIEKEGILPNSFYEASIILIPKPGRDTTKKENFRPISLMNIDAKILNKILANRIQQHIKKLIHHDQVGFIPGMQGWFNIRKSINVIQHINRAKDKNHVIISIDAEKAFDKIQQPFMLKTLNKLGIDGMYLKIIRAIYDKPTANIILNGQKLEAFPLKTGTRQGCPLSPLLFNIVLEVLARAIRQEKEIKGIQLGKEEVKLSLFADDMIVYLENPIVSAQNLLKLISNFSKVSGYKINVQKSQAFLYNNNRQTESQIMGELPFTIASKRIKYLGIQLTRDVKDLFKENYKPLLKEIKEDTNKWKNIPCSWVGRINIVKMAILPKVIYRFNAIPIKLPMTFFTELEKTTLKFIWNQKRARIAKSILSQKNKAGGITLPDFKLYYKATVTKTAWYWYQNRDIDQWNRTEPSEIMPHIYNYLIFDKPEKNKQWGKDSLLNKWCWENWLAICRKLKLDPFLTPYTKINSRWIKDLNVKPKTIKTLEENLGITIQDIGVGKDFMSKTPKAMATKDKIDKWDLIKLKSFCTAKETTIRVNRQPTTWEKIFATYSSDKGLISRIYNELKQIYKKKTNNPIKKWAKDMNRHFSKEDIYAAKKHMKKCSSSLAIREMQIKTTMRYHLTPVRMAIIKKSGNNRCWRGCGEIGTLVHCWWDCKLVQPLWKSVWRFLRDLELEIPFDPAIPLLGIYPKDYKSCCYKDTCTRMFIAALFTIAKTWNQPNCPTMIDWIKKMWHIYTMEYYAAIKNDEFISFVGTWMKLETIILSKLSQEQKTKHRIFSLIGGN
binder,measurement,setting,value
"LINE-1 ORF1p (translation product of L1 ORF1), endogenous (natural protein) MGKKQNRKTGNSKTQSASPPPKERSSSPATEQSWMENDFDELREEGFRRSNYSELREDIQTKGKEVENFEKNLEECITRITNTEKCLKELMELKTKARELREECRSLRSRCDQLEERVSAMEDEMNEMKREGKFREKRIKRNEQSLQEIWDYVKRPNLRLIGVPESDVENGTKLENTLQDIIQENFPNLARQANVQIQEIQRTPQRYSSRRATPRHIIVRFTKVEMKEKMLRAAREKGRVTLKGKPIRLTADLSAETLQARREWGPIFNILKEKNFQPRISYPAKLSFISEGEIKYFIDKQMLRDFVTTRPALKELLKEALNMERNNRYQPLQNHAKM",ORF1p:ORF2p molar ratio in the affinity enriched fraction,[1],~184 molar ratio (ORF1p per ORF2p)
same,ORF1p:ORF2p molar ratio in the affinity enriched fraction,[2],~279 molar ratio (ORF1p per ORF2p)
